The experiment deals with T1, GST (UniProt P08515 1-218 = GST).
T1 construct: Control protein; also called GST itself
The experiment in a line: Far-Western blot with radioactively labeled probe.

This note sets out measurements from US20020150567A1 (University of California, published 2002).

T1 sequence (P08515 whole entry): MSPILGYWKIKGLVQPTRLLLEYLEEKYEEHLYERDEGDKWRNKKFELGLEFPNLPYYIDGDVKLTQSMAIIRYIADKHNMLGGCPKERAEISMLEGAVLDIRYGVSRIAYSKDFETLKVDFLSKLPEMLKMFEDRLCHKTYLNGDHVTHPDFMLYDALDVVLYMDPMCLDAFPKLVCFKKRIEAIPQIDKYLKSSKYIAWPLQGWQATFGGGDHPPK
Source text: A bacterially expressed GST-GRB2 fusion protein containing a 5 amino acid RRASV heart muscle kinase site was purified and radioactively labeled with [³²P]ATP.

B1: p85 SH3 domain (amino acids 1-81) (other, UniProt P26450 1-81, looked up)
chain: MSAEGYQYRALYDYKKEREEDIDLHLGDILTVNKGSLVALGFSDGQEARPEDIGWLNGYNETTGERGDFPGTYVEYIGRKR
modifications: radioactively labeled
notes: range 1-81
B1: the binding result is “no binding”.
